According to publication PMC12015215, “Structural basis of human Mediator recruitment by the phosphorylated transcription factor Elk-1” (Nature Communications, 2025):
Where two headings read alike, the source gives them in different places. Blank lines part the entries; values can stand above or below the molecule they belong to.

How the values were obtained:
[1] = biological target: T1, BAP-MED23-6His, biotinylated (human, UniProt Q9ULK4-1 1-1368, biotin on the BAP tag (biotinylated during expression)); assay: SPR; BIAcore T200; biotinylated BAP-MED23 captured on a streptavidin SA chip (2000-3000 RU), PBS+ buffer; GST-fused Elk-1 derivatives injected at 0.25-4 µM, single-cycle kinetics in triplicate, 1:1 Langmuir model
T1 construct: Mediator complex subunit MED23, human, isoform 1 (NM_004830.3); Captured by its biotin on a streptavidin SA chip; also called biotinylated MED23; MED23 with a BAP tag; source: insect cells (pFastBac Dual with BirA biotin ligase), purified by the same procedure as MED23-6His; not shown: BAP (biotin acceptor peptide), N-terminal, kept
T1 sequence: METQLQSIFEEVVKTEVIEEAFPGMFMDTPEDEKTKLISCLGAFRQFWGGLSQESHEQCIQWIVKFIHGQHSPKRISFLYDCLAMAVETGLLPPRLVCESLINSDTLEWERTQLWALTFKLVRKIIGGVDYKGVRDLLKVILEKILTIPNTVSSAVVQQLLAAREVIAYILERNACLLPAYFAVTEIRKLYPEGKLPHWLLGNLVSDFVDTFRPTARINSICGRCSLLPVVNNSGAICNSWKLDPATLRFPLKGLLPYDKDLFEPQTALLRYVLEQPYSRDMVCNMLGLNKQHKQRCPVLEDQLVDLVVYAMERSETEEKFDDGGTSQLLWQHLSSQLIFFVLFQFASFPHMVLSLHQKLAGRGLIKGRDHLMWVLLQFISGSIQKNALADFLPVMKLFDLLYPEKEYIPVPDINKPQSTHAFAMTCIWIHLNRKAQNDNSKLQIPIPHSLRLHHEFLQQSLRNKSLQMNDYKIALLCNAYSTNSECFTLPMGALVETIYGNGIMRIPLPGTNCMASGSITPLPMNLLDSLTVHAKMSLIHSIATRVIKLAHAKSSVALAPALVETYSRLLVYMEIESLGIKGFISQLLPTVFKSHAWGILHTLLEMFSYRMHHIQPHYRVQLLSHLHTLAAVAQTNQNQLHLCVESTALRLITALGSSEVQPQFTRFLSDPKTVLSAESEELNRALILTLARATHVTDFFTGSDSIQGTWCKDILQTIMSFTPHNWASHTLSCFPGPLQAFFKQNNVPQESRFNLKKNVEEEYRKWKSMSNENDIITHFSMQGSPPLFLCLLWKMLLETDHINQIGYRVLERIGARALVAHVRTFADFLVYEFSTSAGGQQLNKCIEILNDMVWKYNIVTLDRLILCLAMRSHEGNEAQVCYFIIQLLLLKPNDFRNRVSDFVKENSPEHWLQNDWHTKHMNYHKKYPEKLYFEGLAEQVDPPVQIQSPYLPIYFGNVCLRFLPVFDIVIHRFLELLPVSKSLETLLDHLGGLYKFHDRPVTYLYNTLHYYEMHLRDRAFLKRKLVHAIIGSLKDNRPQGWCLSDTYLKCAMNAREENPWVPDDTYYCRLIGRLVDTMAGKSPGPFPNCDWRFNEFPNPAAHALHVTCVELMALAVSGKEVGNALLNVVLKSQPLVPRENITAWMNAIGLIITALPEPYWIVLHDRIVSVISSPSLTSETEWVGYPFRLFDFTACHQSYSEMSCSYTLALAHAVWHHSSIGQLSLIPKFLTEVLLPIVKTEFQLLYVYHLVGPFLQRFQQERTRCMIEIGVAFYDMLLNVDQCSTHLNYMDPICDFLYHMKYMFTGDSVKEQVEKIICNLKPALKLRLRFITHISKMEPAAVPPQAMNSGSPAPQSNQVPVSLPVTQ

[2] = biological target: T2, MED23-6His (human Mediator complex subunit MED23, wild type) (human, UniProt Q9ULK4-1 1-1368); assay: pull-down; 4 µg GST constructs immobilised on GST-Trap agarose; 20 µg recombinant MED23 or MED23 G382F, 90 min at 4 °C in PBS-casein; SDS-PAGE, Coomassie; settings: both partners purified
T2 construct: Mediator complex subunit MED23, human, isoform 1 (NM_004830.3); cloned before a rhinovirus 3C protease site followed by a 6xHis tag; The stored protein is named MED23-6His; cleavage by 3C protease is not reported; In the functional rows MED23 WT was expressed from PIN510A-1 or FC550A-1 plasmids in MED23-/- MEFs; also called MED23 WT; recombinant MED23; source: ExpiSF9 insect cells (baculovirus), …
T2 sequence: T1 sequence

- Kd [1]: 81 nM
Molecule: GST-fused Elk-1^1P (S383P) (308–401)-6His, phosphorylated only at S383 (from UniProt P19419 308-401) (domain or fragment)

- Kd [1]: 42 nM
Molecule: GST-fused Elk-1^2P (T368P/S383P) (308–401)-6His, phosphorylated at T368 and S383 (from UniProt P19419 308-401) (domain or fragment)

- Kd [1]: 75 nM
Molecule: GST-fused Elk-1^2P (T368P/S389P) (308–401)-6His, phosphorylated at T368 and S389 (from UniProt P19419 308-401) (domain or fragment)

- Kd ([1]; both partners purified): 60 nM
B1: GST-fused Elk-1^3P (308–401)-6His, phosphorylated at T368, S383 and S389 (domain or fragment, UniProt P19419 308-401, looked up)
chain: SQPQKGRKPRDLELPLSPSLLGGPGPERAPGSGSGSGLQAPGPALAPSLLPTHTLAPVLLTPSSLPPSIHFWSTLSPIAPRSPAKLSFQFPSSG
modifications: phosphorylated at T368, S383 and S389 by co-expressed ERK kinase
notes: In pGEX-4T1 (synthesised by Genscript); also called triply phosphorylated Elk-1; source: E. coli BL21 (DE3), co-expressed with MBP-ERK2-GOF/MEK1DD, purified (GSTrap 4B and/or HisTap HP)

- binding result [2]: binds
B2: phosphorylated GST-Elk-1^8P (308–428)-6His (domain or fragment, UniProt P19419 308-428, looked up)
chain: SQPQKGRKPRDLELPLSPSLLGGPGPERTPGSGSGSGLQAPGPALTPSLLPTHTLTPVLLTPSSLPPSIHFWSTLSPIAPRSPAKLSFQFPSSGSAQVHIPSISVDGLSTPVVLSPGPQKP
modifications: phosphorylated in E. coli by co-expressed ERK2-GOF/MEK1DD; which of the eight S/T-P sites carry phosphate is not stated
notes: In pGEX-6P1; also called Elk-1 TAD; Gal4-Elk-1^8P (308–428) in the reporter assays; source: E. coli BL21 (DE3), co-expressed with MBP-ERK2-GOF/MEK1DD, purified (GSTrap 4B and/or HisTap HP); not shown: GST, N-terminal, kept
